Measurements from US20260209293A1 (Novo Nordisk, published 2026).
*1 amine or outer side, *2 acyl side, *3 side chain or, on linkers, in order; H or OH if unused. The star is where a group is joined. C20 diacid = O=C(O)CCCCCCCCCCCCCCCCCCC(=O)*; C18 diacid = O=C(O)CCCCCCCCCCCCCCCCC(=O)*; γGlu = O=C(O)[C@H](CCC(=O)[*:2])N[*:1]

T1: human amylin-3(a) receptor (human, UniProt P30988 25-474; O60896 24-148)
T1 sequence (looked up) 1: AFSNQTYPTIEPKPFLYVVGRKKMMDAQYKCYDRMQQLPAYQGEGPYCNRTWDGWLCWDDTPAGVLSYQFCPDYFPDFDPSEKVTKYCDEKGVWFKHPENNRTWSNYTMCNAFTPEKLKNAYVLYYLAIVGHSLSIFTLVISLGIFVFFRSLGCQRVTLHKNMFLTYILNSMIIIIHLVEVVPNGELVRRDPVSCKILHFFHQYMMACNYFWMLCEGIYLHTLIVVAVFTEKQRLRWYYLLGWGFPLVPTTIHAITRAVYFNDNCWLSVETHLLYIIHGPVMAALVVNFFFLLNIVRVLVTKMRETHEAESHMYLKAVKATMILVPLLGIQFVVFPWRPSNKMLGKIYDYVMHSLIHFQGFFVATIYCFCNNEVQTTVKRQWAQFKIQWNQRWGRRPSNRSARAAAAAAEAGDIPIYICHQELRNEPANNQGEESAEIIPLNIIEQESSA
T1 sequence (looked up) 2: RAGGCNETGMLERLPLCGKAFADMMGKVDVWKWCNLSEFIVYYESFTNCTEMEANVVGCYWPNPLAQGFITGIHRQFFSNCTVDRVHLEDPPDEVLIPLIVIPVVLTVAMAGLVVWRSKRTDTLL

T2: human calcitonin receptor (a) (human, UniProt P30988 25-474)
T2 sequence (looked up): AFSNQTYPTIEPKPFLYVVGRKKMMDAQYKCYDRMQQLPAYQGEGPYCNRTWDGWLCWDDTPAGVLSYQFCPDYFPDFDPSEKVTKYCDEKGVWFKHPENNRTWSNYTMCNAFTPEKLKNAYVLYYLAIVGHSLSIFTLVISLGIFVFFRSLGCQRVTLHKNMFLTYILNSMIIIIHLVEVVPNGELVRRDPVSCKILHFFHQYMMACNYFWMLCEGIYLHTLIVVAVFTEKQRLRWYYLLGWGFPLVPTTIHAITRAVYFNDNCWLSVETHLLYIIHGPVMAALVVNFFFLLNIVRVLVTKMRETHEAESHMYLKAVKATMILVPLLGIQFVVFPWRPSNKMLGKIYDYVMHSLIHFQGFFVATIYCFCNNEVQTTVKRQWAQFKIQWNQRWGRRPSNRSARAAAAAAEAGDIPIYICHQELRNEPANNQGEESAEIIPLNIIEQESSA


Columns and labels:
[1] = target: T1, human amylin-3(a) receptor; experiment: cell-based or functional assay
[2] = target: T2, human calcitonin receptor (a); experiment: cell-based or functional assay

Row | Binder | hAmyR3 potency, EC50 (pM); CRE-luciferase reporter in BHK cells [1] [pM] | hCalcR potency, EC50 (pM); CRE-luciferase reporter in BHK cells [2] [pM]
1 | {C18 diacid-γGlu}-ASHLSTAQTQRLAEFLHHSSDPFGAIPSSTDVGPDTP-NH2 (SMILES CC[C@H](C)[C@H](NC(=O)[C@H](C)NC(=O)CNC(=O)[C@H](Cc1ccccc1)NC(=O)[C@@H]1CCCN1C(=O)[C@H](CC(=O)O)NC(=O)[C@H](CO)NC(=O)[C@H](CO)NC(=O)[C@H](Cc1c[nH]cn1)NC(=O)[C@H](Cc1c[nH]cn1)NC(=O)[C@H](CC(C)C)NC(=O)[C@H](Cc1ccccc1)NC(=O)[C@H](CCC(=O)O)NC(=O)[C@H](C)NC(=O)[C@H](CC(C)C)NC(=O)[C@H](CCCNC(=N)N)NC(=O)[C@H](CCC(N)=O)NC(=O)[C@@H](NC(=O)[C@H](CCC(N)=O)NC(=O)[C@H](C)NC(=O)[C@@H](NC(=O)[C@H](CO)NC(=O)[C@H](CC(C)C)NC(=O)[C@H](Cc1c[nH]cn1)NC(=O)[C@H](CO)NC(=O)[C@H](C)NC(=O)CC[C@H](NC(=O)CCCCCCCCCCCCCCCCC(=O)O)C(=O)O)[C@@H](C)O)[C@@H](C)O)C(=O)N1CCC[C@H]1C(=O)N[C@@H](CO)C(=O)N[C@@H](CO)C(=O)N[C@H](C(=O)N[C@@H](CC(=O)O)C(=O)N[C@H](C(=O)NCC(=O)N1CCC[C@H]1C(=O)N[C@@H](CC(=O)O)C(=O)N[C@H](C(=O)N1CCC[C@H]1C(N)=O)[C@@H](C)O)C(C)C)[C@@H](C)O) | 1.5 | 1.44
2 | {C20 diacid-γGlu}-AGHLSTAQTQRLAEFLHHSSDPFGAIPSSTDVGPDTP-NH2 (SMILES CC[C@H](C)[C@H](NC(=O)[C@H](C)NC(=O)CNC(=O)[C@H](Cc1ccccc1)NC(=O)[C@@H]1CCCN1C(=O)[C@H](CC(=O)O)NC(=O)[C@H](CO)NC(=O)[C@H](CO)NC(=O)[C@H](Cc1c[nH]cn1)NC(=O)[C@H](Cc1c[nH]cn1)NC(=O)[C@H](CC(C)C)NC(=O)[C@H](Cc1ccccc1)NC(=O)[C@H](CCC(=O)O)NC(=O)[C@H](C)NC(=O)[C@H](CC(C)C)NC(=O)[C@H](CCCNC(=N)N)NC(=O)[C@H](CCC(N)=O)NC(=O)[C@@H](NC(=O)[C@H](CCC(N)=O)NC(=O)[C@H](C)NC(=O)[C@@H](NC(=O)[C@H](CO)NC(=O)[C@H](CC(C)C)NC(=O)[C@H](Cc1c[nH]cn1)NC(=O)CNC(=O)[C@H](C)NC(=O)CC[C@H](NC(=O)CCCCCCCCCCCCCCCCCCC(=O)O)C(=O)O)[C@@H](C)O)[C@@H](C)O)C(=O)N1CCC[C@H]1C(=O)N[C@@H](CO)C(=O)N[C@@H](CO)C(=O)N[C@H](C(=O)N[C@@H](CC(=O)O)C(=O)N[C@H](C(=O)NCC(=O)N1CCC[C@H]1C(=O)N[C@@H](CC(=O)O)C(=O)N[C@H](C(=O)N1CCC[C@H]1C(N)=O)[C@@H](C)O)C(C)C)[C@@H](C)O) | 1.68 | 1.81
3 | {C18 diacid-γGlu}-AGSLSTAQTQRLAEFLHHSSDPFGAIPSSTDVGPDTP-NH2 (SMILES CC[C@H](C)[C@H](NC(=O)[C@H](C)NC(=O)CNC(=O)[C@H](Cc1ccccc1)NC(=O)[C@@H]1CCCN1C(=O)[C@H](CC(=O)O)NC(=O)[C@H](CO)NC(=O)[C@H](CO)NC(=O)[C@H](Cc1c[nH]cn1)NC(=O)[C@H](Cc1c[nH]cn1)NC(=O)[C@H](CC(C)C)NC(=O)[C@H](Cc1ccccc1)NC(=O)[C@H](CCC(=O)O)NC(=O)[C@H](C)NC(=O)[C@H](CC(C)C)NC(=O)[C@H](CCCNC(=N)N)NC(=O)[C@H](CCC(N)=O)NC(=O)[C@@H](NC(=O)[C@H](CCC(N)=O)NC(=O)[C@H](C)NC(=O)[C@@H](NC(=O)[C@H](CO)NC(=O)[C@H](CC(C)C)NC(=O)[C@H](CO)NC(=O)CNC(=O)[C@H](C)NC(=O)CC[C@H](NC(=O)CCCCCCCCCCCCCCCCC(=O)O)C(=O)O)[C@@H](C)O)[C@@H](C)O)C(=O)N1CCC[C@H]1C(=O)N[C@@H](CO)C(=O)N[C@@H](CO)C(=O)N[C@H](C(=O)N[C@@H](CC(=O)O)C(=O)N[C@H](C(=O)NCC(=O)N1CCC[C@H]1C(=O)N[C@@H](CC(=O)O)C(=O)N[C@H](C(=O)N1CCC[C@H]1C(N)=O)[C@@H](C)O)C(C)C)[C@@H](C)O) | 1.44 | 1.49

Further lines, results first:

Row | hAmyR3 potency, EC50 (pM); CRE-luciferase reporter in BHK cells [1] [pM] | hCalcR potency, EC50 (pM); CRE-luciferase reporter in BHK cells [2] [pM] | Binder
4 | 0.77 | 1.31 | {C20 diacid-γGlu}-ASHLSTAQTARLAEFLHHSSDNFGPILPPTDVGSNTP-NH2 (SMILES CC[C@H](C)[C@H](NC(=O)[C@@H]1CCCN1C(=O)CNC(=O)[C@H](Cc1ccccc1)NC(=O)[C@H](CC(N)=O)NC(=O)[C@H](CC(=O)O)NC(=O)[C@H](CO)NC(=O)[C@H](CO)NC(=O)[C@H](Cc1c[nH]cn1)NC(=O)[C@H](Cc1c[nH]cn1)NC(=O)[C@H](CC(C)C)NC(=O)[C@H](Cc1ccccc1)NC(=O)[C@H](CCC(=O)O)NC(=O)[C@H](C)NC(=O)[C@H](CC(C)C)NC(=O)[C@H](CCCNC(=N)N)NC(=O)[C@H](C)NC(=O)[C@@H](NC(=O)[C@H](CCC(N)=O)NC(=O)[C@H](C)NC(=O)[C@@H](NC(=O)[C@H](CO)NC(=O)[C@H](CC(C)C)NC(=O)[C@H](Cc1c[nH]cn1)NC(=O)[C@H](CO)NC(=O)[C@H](C)NC(=O)CC[C@H](NC(=O)CCCCCCCCCCCCCCCCCCC(=O)O)C(=O)O)[C@@H](C)O)[C@@H](C)O)C(=O)N[C@@H](CC(C)C)C(=O)N1CCC[C@H]1C(=O)N1CCC[C@H]1C(=O)N[C@H](C(=O)N[C@@H](CC(=O)O)C(=O)N[C@H](C(=O)NCC(=O)N[C@@H](CO)C(=O)N[C@@H](CC(N)=O)C(=O)N[C@H](C(=O)N1CCC[C@H]1C(N)=O)[C@@H](C)O)C(C)C)[C@@H](C)O)
5 | 0.86 | 1.25 | {C20 diacid-γGlu}-ASHLSTAQTQRLAEFLHHSSDPFGAIPSSTDVGPDTP-NH2 (SMILES CC[C@H](C)[C@H](NC(=O)[C@H](C)NC(=O)CNC(=O)[C@H](Cc1ccccc1)NC(=O)[C@@H]1CCCN1C(=O)[C@H](CC(=O)O)NC(=O)[C@H](CO)NC(=O)[C@H](CO)NC(=O)[C@H](Cc1c[nH]cn1)NC(=O)[C@H](Cc1c[nH]cn1)NC(=O)[C@H](CC(C)C)NC(=O)[C@H](Cc1ccccc1)NC(=O)[C@H](CCC(=O)O)NC(=O)[C@H](C)NC(=O)[C@H](CC(C)C)NC(=O)[C@H](CCCNC(=N)N)NC(=O)[C@H](CCC(N)=O)NC(=O)[C@@H](NC(=O)[C@H](CCC(N)=O)NC(=O)[C@H](C)NC(=O)[C@@H](NC(=O)[C@H](CO)NC(=O)[C@H](CC(C)C)NC(=O)[C@H](Cc1c[nH]cn1)NC(=O)[C@H](CO)NC(=O)[C@H](C)NC(=O)CC[C@H](NC(=O)CCCCCCCCCCCCCCCCCCC(=O)O)C(=O)O)[C@@H](C)O)[C@@H](C)O)C(=O)N1CCC[C@H]1C(=O)N[C@@H](CO)C(=O)N[C@@H](CO)C(=O)N[C@H](C(=O)N[C@@H](CC(=O)O)C(=O)N[C@H](C(=O)NCC(=O)N1CCC[C@H]1C(=O)N[C@@H](CC(=O)O)C(=O)N[C@H](C(=O)N1CCC[C@H]1C(N)=O)[C@@H](C)O)C(C)C)[C@@H](C)O)
6 | 2.18 | 1.68 | {C18 diacid-γGlu-γGlu}-ASHLSTAQTQRLAEFLHHSSDPFGAIPSSTDVGPDTP-NH2 (SMILES CC[C@H](C)[C@H](NC(=O)[C@H](C)NC(=O)CNC(=O)[C@H](Cc1ccccc1)NC(=O)[C@@H]1CCCN1C(=O)[C@H](CC(=O)O)NC(=O)[C@H](CO)NC(=O)[C@H](CO)NC(=O)[C@H](Cc1c[nH]cn1)NC(=O)[C@H](Cc1c[nH]cn1)NC(=O)[C@H](CC(C)C)NC(=O)[C@H](Cc1ccccc1)NC(=O)[C@H](CCC(=O)O)NC(=O)[C@H](C)NC(=O)[C@H](CC(C)C)NC(=O)[C@H](CCCNC(=N)N)NC(=O)[C@H](CCC(N)=O)NC(=O)[C@@H](NC(=O)[C@H](CCC(N)=O)NC(=O)[C@H](C)NC(=O)[C@@H](NC(=O)[C@H](CO)NC(=O)[C@H](CC(C)C)NC(=O)[C@H](Cc1c[nH]cn1)NC(=O)[C@H](CO)NC(=O)[C@H](C)NC(=O)CC[C@H](NC(=O)CC[C@H](NC(=O)CCCCCCCCCCCCCCCCC(=O)O)C(=O)O)C(=O)O)[C@@H](C)O)[C@@H](C)O)C(=O)N1CCC[C@H]1C(=O)N[C@@H](CO)C(=O)N[C@@H](CO)C(=O)N[C@H](C(=O)N[C@@H](CC(=O)O)C(=O)N[C@H](C(=O)NCC(=O)N1CCC[C@H]1C(=O)N[C@@H](CC(=O)O)C(=O)N[C@H](C(=O)N1CCC[C@H]1C(N)=O)[C@@H](C)O)C(C)C)[C@@H](C)O)
